Test results reported in patent publication US20130196320A1, “METHOD FOR IMPROVING CLEAVAGE OF DNA BY ENDONUCLEASE SENSITIVE TO METHYLATION” (CELLECTIS, priority 2010, published 2013).
Read-outs that look alike come from different tables or passages of the source.

B1: ADCY9: engineered meganuclease (SEQ ID NO: 3) designed to cleave adenylate cyclase 9 gene (protein)
chain: MANTKYNEEFLLYLAGFVDGDGSIIAQIKPNQSYKFKHQLSLTFRVTQKTQRRWFLDKLVDEIGVGYVRDSGSVSNYDLSEIKPLHNFLTQLQPFLELKQKQANLVLKIIEQLPSAKESPDKFLEVCTWVDQVAALNDSKTRKTTSETVRAVLDSLSEKKKSSPAAGGSDKYNQALSKYNQALSKYNQALSGGGGSNKKFLLYLAGFVDSDGSIIAQIKPDQSYKFKHQLGLTFQVTQKTQRRWFLDKLVDRIGVGYVRDRGSVSDYILSEIKPLHNFLTQLQPFLKLKQKQANLVLKIIEQLPSAKESPDKFLEVCTWVDQVAALNDSKTRKTTSETVRAVLDSLSEKKKSSP

What was measured:
[1] = test system: ADCY9 target CpG in 293H cells; assay: DNA methylation status of ADCY9 target by bisulfite technique; assay type: cell-based, human; details: 0.2 and 1 μM; 100% methylated without treatment
Experimental: The human 293H cells (ATCC) were plated at a density of 1.2×10^6 cells per 10 cm dish in complete medium (DMEM supplemented with 2 mM L-glutamine, penicillin (100 IU/ml), streptomycin (100 μg/ml), amphotericin B (Fongizone: 0.25 μg/ml, Invitrogen-Life Science) and 10% FBS). The cells were pre-treated with 5-aza-deoxycytidine at 0.2 μM or 1 μM, 48 hours before transfection and the treatment was maintained 48 hours post-transfection. The medium was changed every day. The cells were transfected with 5 μg of DNA plasmids encoding meganuclease using Lipofectamine 2000 transfection reagent (Invitrogen) according to the manufacturer's protocol.
The procedure as described in Example 4 was followed to assess the level of DNA methylation, except that we used specific primers to amplify the sequence surrounded the ADCY9 meganuclease recognition site. Primers ADCY9_F1 […] (SEQ ID NO: 43) and ADCY9_R1 […] (SEQ ID NO: 44) were used. PCR products were sequenced directly with primer ADCY9_F2 […] (SEQ ID NO: 45).

ADCY9.1 DNA target = assay: In vitro binding assay, fluorescence anisotropy of fluorescein-labeled ADCY9.1 duplex
Experimental: FIG. 12: Spectrofluorimetric titration of fluorescein-labeled ADCY9.1 by ADCY9. 50 nM of ADCY9.1 duplex was incubated with increasing concentrations of ADCY9 (from 0 to 1.5 μM) in binding buffer (10 mM Tris-HCl, 150 mM NaCl, 10 mM CaCl2, 10 mM DTT, pH8) at 25° C. After 30 minutes incubation, the fluorescence anisotropy of the mixture was recorded with a Pherastar Plus (BMG Labtech) operating in fluorescence polarization end point mode with excitation and emission wavelengths set to 495 and 520 nm respectively. Normalized fluorescence anisotropy is plotted as a function of ADCY9 concentration. Apparent dissociation constant were determined by fitting raw data by an hyperbolic function (Ax=(A∞*[Meganuclease])/(Kd+[Meganuclease]) with Ax, the fluorescence anisotropy value obtained at a given meganuclease concentration, A∞ the fluorescence anisotropy value obtained at saturating concentration of meganuclease and Kd the dissociation constant of the equilibrium studied).
Fluorescein labeled C1234 oligonucleotides were synthesized and HPLC-purified by Eurogentec. […] C 1234 duplex and fluorescein final concentrations were assessed by spectrophotometry using their respective extinction coefficients ε260nm=62900 M^−1 cm^−1 and ε495nm=83000 M^−1 cm^−1. […]

Molecule | amount of methylated CpG within ADCY9 target [1] [%] | Kd (ADCY9.1 DNA target; ADCY9.1_Me −3a/−2b (fully methylated), sigmoidal pattern, read-out: Kd (apparent)) [nM] | Kd (ADCY9.1 DNA target; unmethylated ADCY9.1, read-out: Kd) [nM]
Nc1ncn([C@H]2C[C@H](O)[C@@H](CO)O2)c(=O)n1 [5-aza-2′deoxycytidine, reference compound] | 40 | – | –
B1 | – | 431 ± 30 | 190 ± 19
